The nature of the data set: soluble on expression in E. coli; label from the status in PepcDB or PDB records.
With “PDPVRLEIFKNLYQFIAEQMGIVLQNTAASVNIKERLDFSCAIFDSSGLLVANAPHIPVHLGSMSESVCSLINDKGETIKPGNVYLSNNPYNGGTHLPDVTAITPVFPETQENPPTPLFYVASRGHQADIGGITPGSMPPHSTTVEEEGILFDNFLLVEAGNFQEIQVRNLLANHLYPARNPDQNIADFQAQIAANERGVKELHKMVAQYGLPIVQVYMKFVQDNAGESVRRAIDVLKDGTFIYEMDGGAKIQVKVTINREKRSAEIDFTGTSEQLNSNFNAPKAVTQAAVLYVFRTLVDDNIPLNAGCLKPLDIIVPEGCMLNPTYPSAVVAGNVETSQTIVDALYGALSVMAASQGTMNNFTFGSDRYQYYETICGGSGAGSNFDGTDAVHTHMTNSLLTDPEVLETRYPVLVESFSLRSDSGGKGKYSGGNGVVRRIRFLEPMTANILSGHRLVPPFGLNGGEAGQVGHNRIERHDGTQENLDSTATAEMQPGDVFVIETPGGGGFG”, the “soluble on expression in E. coli” value is “not soluble”.
Next, “MAHHHHHHMPIPSPPPPMRFVPNGVGGGGARDLTAVKEPNFEVLETSSPVPARVIHNAPASAVPSGTQRPVEAPPSTHATGAQHHPKAVHSPPLACPALAMTSTPASSSSSSSSQQVAQLWQLVQDLTAENAVLQQRVRVLMEGETHDAILPGMLTAPSSPEETEALLLRVRRLEAALKVEAMEREALEVRLQAQEQVLTRLLRR”: “soluble”; “GKPFYYDVNFNLADSRAYITKYENPKGLLGDYYVGKEIGEIWGVETLGFFTSEEDIKNHADQSWCTSYPGTRPLAPGDLKFKDENKDGKITDGAWTLEDHGDYKIIGNSRARYTFGLSANAQWNGFDLSLFAQGVGKKDYYPGTGDLYFWGIYAQPWTNITKGNMYDHWTEENPDAYFPRMKAYVAENTDRECGVVQTRYLQNAAYMRLKNLTVGYTLPKVLLNKIGIERLRIFFSGDNLCEFSGLYKHYKVDPESLGNIVYPLQRSYSFGLNVTF”: “not soluble”.
Next, “MKTGPLNESELEWLDDILTKYNTDHAILDVAELDGLLTAVLSSPQEIEPEQWLVAVWGGADYVPRWASEKEMTRFMNLAFQHMADTAERLNEFPEQFEPLFGLREVDGSELTIVEEWCFGYMRGVALSDWSTLPDSLKPALEAIALHGTEENFERVEKMSPEAFEESVDAIRLAALDLHAYWMAHPQEKAVQQPIKAEEKPGRNDPCPCGSGKKFKQCCLH”: “not soluble”; “MSLRDHGAPYGAHTLAYRPSGELLLVRHEGVDMWVLPGGELDRGESFQEAALRELGEESGIEATIEGLGMLGRVEFYCDGNMAWGVLPVYEAQAETTDIAVDDPDHEISEAQWFDKLPADTRDREEILQWRGQRFSGREGHHHHHH”: “soluble”; “MGSDKIHHHHHHMLLTRTQIRRLVYAHGREILEHDHMAIERVCYQHGVVTTFAHSIRVACLSVWLADRLHLWNRVDLRSLIRAALLHDYFLYDWHDWDNGTHRLHGFTHGETAMRNAIRDFKLNQIERDSIEHHMFPLTPYPPKYIEGYLVTAADKISATKETLSFDRFDKPASEQPTDRS”: “not soluble”.
Take “MGSDKIHHHHHHMSLLSVSDVGKAYKTYRSELQRIAHWFFLPTKASSEHWVLKHINFAIEPGEAIGIIGQNGAGKSTLLKMITGTLQPTQGRVQVNGRIAAILELGMGFNPELSGRQNVYHAAGLMGFDVQQINDVIDDIEAFAEIGEYFDEAVRTYSSGMQMRVAFAVATAFRPEILIVDEALSVGDSYFQHKSFERIREFQRLGTSLLIVSHDRGAIQSLCSRALLLENGSIIKDGPPEQVMDYYNALIAEKENSTVQVKQLADGTVQTQSGSGEATIGTVALYDMQGTPVEFVAVGDKVTLSVQVEVHAPIPELVVGYVIKDRLGQHVFGTNTHHLGKAQKALETGEKLEYRFDFEMNLGPGSYSVAVALHANEVHIGSNYEWRDLALVFNVVNTSKPQFVGMAWVPTAVECIR”: the “soluble on expression in E. coli” value is given as “not soluble”.
With “MAQLFFRYGAMNSGKTIEILKVAHNYEEQDKSVIILTSGLDNRDGVGYVASRIGLKREATPVFDDTNIFEIVKQTNPDAACVLIDEAQFLKKHHVLELADIVDELKIPVMTFGLKNDFRNELFEGSKYLLLYADKIEEMKTICWFCRKKAIMNLRFHDGQPVYEGEQVQIGGNEAYYPVCRHHYFYPPKLTKLEHHHHHH”, the “soluble on expression in E. coli” value is reported as “soluble”.
Next, “MPIYEYACHACGLEKEHLQKMSDAPIANCPACGSSDYVKKVSAAGFQLKGTGWYVTDFRNKNTRSDSKPKEESGKEAADTDKAAATTTTDSTTATATTASTSTTAPTVSSVD”: “not soluble”.
For “MNERKKSIDELLSDLGVLEEAPVEVELKESGTPEAQGDPRAFLEEFLGGLLLLLDPGHRLEVRVEGETLKAEVKGGDLGRFIGKEGRTLRAVEHLARVVLARRFGTGYRLVLDAAGYRSRAEARIRRLAEEAALTVAMTGEPLHLPPMPPGERRIVHMLLKNHPRVTTESQGEGEERHVVVYPRREAQG” the value was “soluble”.
For “MPSLSKEAALVHDALVARGLETPLRPPMDELDNETRKSLIAGHMTEIMQLLNLDLSDDSLMETPHRIAKMYVDEIFAGLDYANFPKITLIENKMKVDEMVTVRDITLTSTCEHHFVTIDGKATVAYIPKDSVIGLSKINRIVQFFAQRPQVQERLTQQILTALQTLLGTNNVAVSIDAVHYCVKARGIRDATSATTTTSLGGLFKSSQNTRQEFLRAVRHHP” the value was “not soluble”.
In the case of “MGSDKIHHHHHHMNWLNLRAIVPSDKQNMPNKKNKAAFARTVTKNGAPDVSDIKNSYDDLMYESGAFSQTAINNLEARARLMGLQPAPAANAKVLELGCSMGGNIITQALYYPDAEFTGIDLSGRQVAQGNAIIEKMGLKNVRLEEKDILTVDESFGKFDYIIVHGIWSWVPDAVKDKIFSICRNNLTEHGIAYISYNVYPGWKRQEQLREIMQFSGRDVLEEPLEARTRKGLDALKALAEILENDKGLGGGGKLPAIQKILNHNFYYIAHEYMEAFNDPIYVNGFIEWANRHRLAYIGDTDLHVSFVSWMAEHTRERILALAGGDYIAKEFYSDILSDRQFRRSLLCREEVGDTVRRDESVAVEVIESLNFRPARGETINFDENDTLLSGIRDVMKTGEPFKTEDVAENLARRFPGLTFDRMKINSQLLLQTILGRFSVSSDNAGKPFFEDHKTYVPARFTDYVAAFVEHGAEAFVRPANRYNESTPSFGYGHLYIMRQLSRPTSKQAVIDAVAENLNIVSTTPDGLTFHPPAEVYVEEILADLADRHFLVSAD”, the “soluble on expression in E. coli” value is “not soluble”.
Next, “MQFSKMHGLGNDFMVVDAVTQNVYFSPELIRRLADRHTGVGFDQMLVVEPPYDPELDFHYRIFNADGSEVSQCGNGARCFARFVRLKGLTNKREISVSTQTGRMILSVTEDEQVCVNMGEPDFEPQTVPFRAAKAEKTYILRAAEHTVLCGVVSMGNPHCVMQVDDVSVANVALLGPVLENHERFPERANIGFMQVVSRDHIRLRVYERGAGETQACGSGACAAVAVGVVQDLLNENVHVELPGGSLHIRWQGPGHPLYMTGPATHVYDGFIHL”: “not soluble”.
Next, “QSAYSRIEAESYSNQSGIQTETCSEGGEDVGFVENGDYTVYNNVDFGDGVGGFQARVASATSGGNIEIRLDSSTGTLIGTCPVAGTGDWQTYTDAKCTVSGVTGKHDVYLVFKGDSGYLFNLNWFTFSE”: “soluble”.
With “MNNQLTEITVVRRQSAPRLEFEAAAIYEYPEHLRPFLSEAPALPGVYIFHSESDTLPLYIGKSVNIRSRVLSHLRTPDEATMLRQARRISWICTAGEMGALLLEARLIKEQQPLFNKRLRRNRQLCSLQLSEQKIEVVSARSVDFSHEPNLFGLFANRRAALQSLQNLADEQKLCYGLLGLEPVSRGRACFRFALKRCAGACCGQETPQAHFLRLQASLERLRVVCWPWKGAIALKESRPQMTQFHIINNWLWLGAVPSLDEAATLVRTPAGFDQDGYKILCKPLMSGQYEIIELHTDCRQS”, the “soluble on expression in E. coli” value was “not soluble”.
Next, “SNAGLIDESEQRLVDNIFEFEEKKIREIMVPRTDMVCIYESDSEEKILAILKEEGVTRYPVCRKNKDDILGFVHIRDLYNQKINENKIELEEILRDIIYISENLTIDKALERIRKEKLQLAIVVDEYGGTSGVVTIEDILEEIVGEIQ”: “soluble”; “MGSDKIHHHHHHMKLLWFAHRDIKHPKAGGAERTIYEVGKRLSKLNIGVNLVTVNPGNLLEYENVDGIIIYRIKGNIRTHLYVRKMIKKINPDVIIDDMGHAVPWFSPWFTDKRVIVFFRHLHAKSLPGQVNFFLAKIITLVEKLYPIIYKNNIFVTESDTSENDLIDLGIKKDRIVRIPPGVDLNLFHTGKKTDNVQLLYFGGLRKYKRPEYAITIYENLYKKIDNLKLIIVGDGILLNEIKDKVKGKNYNIVFTGKLEYDELAKIIRESWVNLHFSVTEGWGYSILEASASGTPSVAFKVPGVVDTIIDGYNGFLVNNINEFTDKILYIIKNEDKFILNSRKFAENFTWEKTADLWYKLLNGN”: “not soluble”.
In the case of “LFAAIVDNLSDGIYVLQDDRVVYLNERFAQLFGHGDAGSLLMRELDDILPHGEGKEIVGRIHAELLAGEPSSVAWGQPFAHMDGTPVWLEMEARRIRLNGRPAILGVCHDRT”, the “soluble on expression in E. coli” value is on record as “not soluble”.
For “MGSDKIHHHHHHMLDLNHGSGCQYQKPDRDPGITVAVNAAIDAALVVRNRSQVARQYVSTSGIGRECLRQIQYDYLAVPKDEGRDFEPKTLRIFEAGHRGEDVVAAWLRAAGFDLRTERRDGRQFGFSALNGRFKGHIDGCLVGGPVAMAYPALWENKALGVSSWKDVVKRGVVLSKPVYAAQLALYQAYMDLPAPTLFTALNRDTWEIHCELVPFDAALAQTMSDRAVQVVRASDAQELLPRASAERTSVICRGGKTAGGWHGACSWQDRCWGRCR” the value was “not soluble”; for “KNNINKTRMNDLNREETRLKTFTDWPLDWLDKRQLAQTGMYFTHAGDKVKCFFCGVEIGSWEQEDQPVPEHQRWSPNCPLLRRRTTNNVPINAEALDRILPPISYDICGANDSTLE”, “soluble”; for “MDYDVIANQPVVIDNGSGVIKAGFAGEQQPKVRFANFVGRPKYHRVMAGGLDGDIFIGPKAESNRGLFSIEYPMEHGIVNNWSDMEKIWEYIFGQDQLKIFPEEHPVLLTDAPLNPLKNRERSAEIFFETFNVPALYIQMQAVLSLYATGRTTGVVLDSGDGVTHAVPIVKGFAMKHAIQRMDLAGRDVTEYLRVLLRREGYEFHRSNEFEIVREMKENACYLALDPTKVENNSVKSSYALPDTTKIEISNSLFRAPEVLFKPDLIGTEWPGMAHVVNQSIMKCDVDLRQTLYSNIVLSGGTTLFKGFGDRLLGEMRKIAPADGKIRISASQERNSLTWIGGSIVASLDTFRKMWLGKKEYEDMGASAMHKRFF”, “not soluble”.

Values taken from the DeepSol protein solubility set.
